Assay results from US20230203162A1 (NUMAB THERAPEUTICS, published 2023).
Each block holds one binder with its values, some of them ahead of it.

Key:
[1] = molecular target: T1, recombinant cynomolgus monkey MSLN (purchased from Sino Biological) (cynomolgus monkey); test: SPR, cynomolgus MSLN immobilized on CM5, scFv as analyte, 1:1 Langmuir
T1 construct: Bought protein

[2] = molecular target: T2, recombinant human MSLN (purchased from Peprotech) (human, UniProt Q13421 296-598, limits assumed); test: SPR, MSLN immobilized on CM5, scFv as analyte, 1:1 Langmuir
T2 construct: Bought protein; also called recombinant human mesothelin

[3] = molecular target: T3, plasma-membranous human MSLN on cell lines (H226, HPAC, H292, OVCAR-3, MeT-5A) (human, UniProt Q13421 296-598); test: cELISA on H226 cells, HRP-Protein L
T3 construct: whole, on cells; also called human MSLN on H226 cells; mesothelin on target cells

[4] = molecular target: biotinylated MSLN (human MSLN in the MSLN/MUC16 competition ELISA) (human, UniProt Q13421 296-598, limits assumed, biotinylated); test: competition ELISA, scFv titrated with biotinylated MSLN; competitor coated MUC16
[5] = molecular target: T4, cynomolgus monkey MSLN on recombinant CHO cell line (cynomolgus monkey); test: cELISA on CHO cells expressing cynomolgus monkey MSLN, HRP-Protein L
T4 construct: whole, on cells; also called plasma-membranous cynomolgus monkey MSLN

[6] = molecular target: human serum albumin (hSA, Sigma-Aldrich A3782) (human, UniProt P02768 25-609); test: SPR, hSA amine-coupled to CM5, antibody injected, pH 5.5, 1:1 Langmuir
[7] = molecular target: T5, human recombinant CD3ε protein (Sino Biological) (human, UniProt P07766 23-126); test: SPR, CD3ε amine-coupled to CM5, antibody injected
T5 construct: Bought protein; also called recombinant human CD3ε; human CD3ε

[8] = molecular target: T2, recombinant human MSLN (purchased from …); test: SPR (Biacore T200), human MSLN; which of the two formats (MSLN immobilized / antibody captured) not given
[9] = molecular target: T3, plasma-membranous human MSLN on cell …; test: flow cytometry on H226 cells, protein L-PE, 4PL fit
[10] = molecular target: T3, plasma-membranous human MSLN on cell …; test: flow cytometry on Met-5A cells, protein L-PE, 4PL fit
[11] = molecular target: T3, plasma-membranous human MSLN on cell …; test: flow cytometry on OVCAR-3 cells, protein L-PE, 4PL fit
[12] = molecular target: soluble mesothelin (sMSLN); test: cell-based or functional assay
[13] = molecular target: T3, plasma-membranous human MSLN on cell …; test: cell-based or functional assay

B2: PRO2567 (MATCH4) (other)
chain 1: AFELTQSPSSLSASVGDRVTITCQASESINSRLAWYQQKPGQPPKLLIYDASDLTSGVPSRFSGSGSGTDFTLTISSLQPEDFATYYCQGYGGSSTTTFGTGTKLTVLGGGGGSGGGGSGGGGSGGGGSEVQLVESGGGLVQPGGSLRLSCAASGFSLSSYAMNWVRQAPGKGLEWIGHINAGDIAYYATWAKGRFTISRDNSKNTVYLQMNSLRAEDTAVYFCARGAGGFSTGPFKLWGQGTLVTVSSGGGGSGGGGSEVQLVESGGGLVQPGGSLRLSCAASGFSLSSYDMSWVRQAPGKGLAWIGASYASGPTYYASWAKGRFTISRDNSKNTVYLQMNSLRAEDTATYFCARGGWTGTSHSNIWGQGTLVTVSSGGGSGGGSGGGSGQSQLVESGGGLVQPGGSLRLSCAVSGFSLSSYAMGWVRQAPGKCLEYIGYISKIGTTYYASWAKGRFTISKDNSKNTVYLQMNSLRAEDTAVYFCARGSSSGGYLDDGFDPWGQGTLVTVSS
chain 2: ALQMTQSPSSLSARVGDRVTIKCQASQSISNYLAWYQQKPGKPPKFLIYDASDLASGVPSRFSGSGSGRDFTLTISSLQPEDFATYYCQQVYDSNNVENVFGCGTKVTVLGGGGGSGGGGSGGGGSGGGGSQSQLVESGGGLVQPGGSLRLSCAVSGFSLSSYAMGWVRQAPGKCLEYIGYISKIGTTYYASWAKGRFTISKDNSKNTVYLQMNSLRAEDTAVYFCARGSSSGGYLDDGFDPWGQGTLVTVSSGGGGSGGGGSALQMTQSPSSLSARVGDRVTIKCQASQSISNYLAWYQQKPGKPPKFLIYDASDLASGVPSRFSGSGSGRDFTLTISSLQPEDFATYYCQQVYDSNNVENVFGCGTKVTVLGGGSGGSDIQMTQSPSSLSASVGDRVTITCQSSQSVFSNNYLAWFQQKPGQSPKRLIYSASTLASGVPSRFSGSGSGTDFTLTISSLQPEDFATYYCLGSYACSSADCYVFGTGTKVTVLG
notes: Heterodimer
Kd [6]: 8.8 nM
koff [6]: 0.00453 s⁻¹
kon [6]: 515000 M⁻¹ s⁻¹
Kd [7]: 4.78 nM
Kd [8]: 1.41 nM
koff [8]: 0.000578 s⁻¹
kon [8]: 411000 M⁻¹ s⁻¹
EC50 [9]: 0.611 nM
max. binding (MFI) [9]: 809000 MFI
EC50 [10]: 0.0824 nM
max. binding (MFI) [10]: 11200 MFI
EC50 [11]: 6.64 nM
max. binding (MFI) [11]: 170000 MFI
Delta 0-50 ng/mL sMSLN (x-fold change in H226 killing potency) [12]: 3.2 fold
Delta 0-500 ng/mL sMSLN (x-fold change in H226 killing potency) [12]: 23.8 fold
Fold-diff Window (mean Met-5A EC50 / mean H226 EC50) [13]: 28.5 fold
average mean H226 EC50, cell killing (LDH release) [13]: 0.00346 nM
average mean Met-5A EC50, cell killing (LDH release) [13]: 0.0987 nM

B3: PRO2566 (MATCH4) (other)
chain 1: B2 chain 1
chain 2: ALQMTQSPSSLSARVGDRVTIKCQASQSISNYLAWYQQKPGKPPKFLIYDASDLASGVPSRFSGSGSGRDFTLTISSLQPEDFATYYCQQVYDSNNVENVFGCGTKVTVLGGGGGSGGGGSGGGGSGGGGSQSQLVESGGGLVQPGGSLRLSCAVSGFSLSSYAMGWVRQAPGKCLEYIGYISKIGTTYYASWAKGRFTISKDNSKNTVYLQMNSLRAEDTAVYFCARGSSSGGYLDDGFDPWGQGTLVTVSSGGGGSGGGGSALQMTQSPSSLSARVGDRVTIKCQASQSISNYLAWYQQKPGKPPKFLIYDASDLASGVPSRFSGSGSGRDFTLTISSLQPEDFATYYCQQVYDSNNVENVFGCGTKVTVLGGGSGGSGGSGGSGDIQMTQSPSSLSASVGDRVTITCQSSQSVFSNNYLAWFQQKPGQSPKRLIYSASTLASGVPSRFSGSGSGTDFTLTISSLQPEDFATYYCLGSYACSSADCYVFGTGTKVTVLG
notes: Heterodimer
Kd [6]: 6.89 nM
koff [6]: 0.00399 s⁻¹
kon [6]: 579000 M⁻¹ s⁻¹
Kd [7]: 2.97 nM
Kd [8]: 1.52 nM
koff [8]: 0.000608 s⁻¹
kon [8]: 400000 M⁻¹ s⁻¹
EC50 [9]: 0.564 nM
max. binding (MFI) [9]: 757000 MFI
EC50 [10]: 0.106 nM
max. binding (MFI) [10]: 12100 MFI
EC50 [11]: 5.13 nM
max. binding (MFI) [11]: 154000 MFI
Delta 0-50 ng/mL sMSLN (x-fold change in H226 killing potency) [12]: 3.1 fold
Delta 0-500 ng/mL sMSLN (x-fold change in H226 killing potency) [12]: 14.2 fold
Fold-diff Window (mean Met-5A EC50 / mean H226 EC50) [13]: 436 fold
average mean H226 EC50, cell killing (LDH release) [13]: 0.00609 nM
average mean Met-5A EC50, cell killing (LDH release) [13]: 2.66 nM

Second part, the binder after the results:

Kd [1]: 30.6 nM
koff [1]: 0.0527 s⁻¹
kon [1]: 1.72e+06 M⁻¹ s⁻¹
Kd [2]: 2.91 nM
koff [2]: 0.00227 s⁻¹
kon [2]: 780000 M⁻¹ s⁻¹
EC50 [3]: 1.44 nM
rel. EC50 (EC50, Amatuximab/EC50, scFv) [3]: 0.16 ratio
rel. Maximum binding (OD450-690 nm, scFv/OD450-690 nm, Amatuximab) [3]: 0.57 ratio
IC50 [4]: 0.5 nM
Maximum inhibition at highest sample conc. [4]: 99.2%
rel. IC50 (IC50, Amatuximab/IC50, scFv) [4]: 0.03 ratio
EC50 [5]: 12 nM
rel. EC50 (EC50, Amatuximab/EC50, scFv) [5]: 0.03 ratio
rel. Maximum binding (OD450-690 nm, scFv/OD450-690 nm, Amatuximab) [5]: 0.89 ratio
B1: anti-MSLN scFv PRO1783 (scFv)
scFv: DIQMTQSPSSLSASVGDRVTITCQASQNIYSNLAWYQQKPGKAPKLLIYDASDLASGVPSRFSGSGSGTDFTLTISSLQPEDFATYYCQQVRSSSDIDNPFGTGTKVTVLGGGGGSGGGGSGGGGSGGGGSQVQLVESGGGLVQPGGSLRLSCAASGFSLSSYAMGWVRQAPGKGLEWIGYISTINNTYYASWAKGRFTISRDNSKNTVYLQMNSLRAEDTAVYYCAREIRSGWVDYGFSIWGQGTLVTVSS
notes: also called 54-01-G02-sc01

Kd [1]: 1.08 nM
koff [1]: 0.0011 s⁻¹
kon [1]: 1.02e+06 M⁻¹ s⁻¹
Kd [2]: 0.321 nM
koff [2]: 0.000183 s⁻¹
kon [2]: 568000 M⁻¹ s⁻¹
EC50 [3]: 0.25 nM
rel. EC50 (EC50, Amatuximab/EC50, scFv) [3]: 0.98 ratio
rel. Maximum binding (OD450-690 nm, scFv/OD450-690 nm, Amatuximab) [3]: 0.71 ratio
IC50 [4]: 0.02 nM
Maximum inhibition at highest sample conc. [4]: 99%
rel. IC50 (IC50, Amatuximab/IC50, scFv) [4]: 0.87 ratio
EC50 [5]: 0.76 nM
rel. EC50 (EC50, Amatuximab/EC50, scFv) [5]: 0.7 ratio
rel. Maximum binding (OD450-690 nm, scFv/OD450-690 nm, Amatuximab) [5]: 0.81 ratio
B4: reference anti-MSLN scFv PRO1795 (scFv)
scFv: DIQMTQSPSSLSASVGDRVTITCQASESIGNYLAWYQQKPGKAPKLLIYSASTLASGVPSRFSGSGSGTDFTLTISSLQPEDFATYYCQSTDYGDSYIFGTGTKVTVLGGGGGSGGGGSGGGGSGGGGSEVQLVESGGGLVQPGGSLRLSCAASGISVSNDYYMCWVRQAPGKGLEWIGCISTYIGNTHYASWAKGRFTISRDNSKNTVYLQMNSLRAEDTAVYYCAKNAGYPGYRYAIDLWGQGTLVTVSS
notes: also called 54-22-H03-sc01
